In US20160264664A1 (Ablynx, published 2016):
Where a chain is given by its changes, count along the chain named. Read-outs that look alike come from different tables or passages of the source.

Assays:
[1] = molecular target: T1, mouse P2X7 (mouse, UniProt Q9Z1M0 1-595); test: flow cytometry, purified Nanobody titrated on mP2X7-CHO cells
T1 construct: on transfected CHO or Hek293 cells, or endogenous on Yac-1 cells; also called mP2X7; mouse purinoceptor P2X7
T1 sequence: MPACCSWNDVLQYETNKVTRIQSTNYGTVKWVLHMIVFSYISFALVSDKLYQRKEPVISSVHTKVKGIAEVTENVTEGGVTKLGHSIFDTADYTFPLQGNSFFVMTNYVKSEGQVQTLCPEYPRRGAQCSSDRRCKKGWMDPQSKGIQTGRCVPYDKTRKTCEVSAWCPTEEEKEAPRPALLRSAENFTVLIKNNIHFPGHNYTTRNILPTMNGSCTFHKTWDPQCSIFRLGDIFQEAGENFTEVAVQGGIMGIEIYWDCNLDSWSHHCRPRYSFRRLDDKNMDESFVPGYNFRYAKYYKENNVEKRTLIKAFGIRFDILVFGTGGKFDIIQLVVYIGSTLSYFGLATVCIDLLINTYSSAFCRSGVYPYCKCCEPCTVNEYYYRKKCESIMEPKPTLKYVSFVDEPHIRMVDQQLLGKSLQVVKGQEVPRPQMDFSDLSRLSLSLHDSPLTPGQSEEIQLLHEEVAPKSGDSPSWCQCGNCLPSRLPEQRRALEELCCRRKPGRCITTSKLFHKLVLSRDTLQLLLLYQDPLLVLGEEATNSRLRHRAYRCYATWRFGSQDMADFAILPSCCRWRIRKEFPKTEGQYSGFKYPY

[2] = molecular target: T2, human P2X4 (human, UniProt Q99571 1-388); test: flow cytometry, Nanobody pre-incubated with anti-Myc-FITC
T2 construct: whole, on cells; also called hP2X4
T2 sequence (looked up): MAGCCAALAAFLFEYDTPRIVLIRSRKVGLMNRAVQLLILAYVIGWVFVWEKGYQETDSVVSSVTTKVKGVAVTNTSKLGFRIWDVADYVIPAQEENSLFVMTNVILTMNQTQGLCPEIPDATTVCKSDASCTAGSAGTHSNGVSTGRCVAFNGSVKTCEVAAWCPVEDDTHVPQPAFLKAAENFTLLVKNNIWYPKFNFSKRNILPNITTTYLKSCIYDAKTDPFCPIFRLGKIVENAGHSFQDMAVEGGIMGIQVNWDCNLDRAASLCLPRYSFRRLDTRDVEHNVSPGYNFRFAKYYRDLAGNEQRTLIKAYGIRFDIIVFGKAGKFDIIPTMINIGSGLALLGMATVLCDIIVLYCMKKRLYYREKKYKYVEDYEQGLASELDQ

[3] = molecular target: T3, human P2X7 (human, UniProt Q99572 1-595); test: as above
T3 construct: on transfected Hek293 cells; also called hP2X7
T3 sequence: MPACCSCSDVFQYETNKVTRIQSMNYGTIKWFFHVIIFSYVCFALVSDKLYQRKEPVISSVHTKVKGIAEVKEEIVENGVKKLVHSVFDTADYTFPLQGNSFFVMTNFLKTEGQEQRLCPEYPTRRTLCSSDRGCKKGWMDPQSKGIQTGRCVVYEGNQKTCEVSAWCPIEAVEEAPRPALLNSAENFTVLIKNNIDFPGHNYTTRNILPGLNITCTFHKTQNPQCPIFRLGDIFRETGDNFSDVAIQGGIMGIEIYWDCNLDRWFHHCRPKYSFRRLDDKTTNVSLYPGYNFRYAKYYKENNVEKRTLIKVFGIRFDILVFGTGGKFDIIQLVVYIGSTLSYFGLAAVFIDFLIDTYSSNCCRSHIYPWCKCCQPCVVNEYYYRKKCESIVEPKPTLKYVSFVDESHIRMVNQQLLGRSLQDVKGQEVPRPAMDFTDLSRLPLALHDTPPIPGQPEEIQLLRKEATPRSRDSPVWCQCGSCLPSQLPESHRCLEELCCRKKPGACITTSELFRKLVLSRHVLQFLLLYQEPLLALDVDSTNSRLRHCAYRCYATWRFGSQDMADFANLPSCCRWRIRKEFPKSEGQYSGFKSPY

[4] = molecular target: T1, mouse P2X7; test: phage ELISA on fixed mP2X7-CHO vs untransfected CHO cells;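 also: phage culture supernatant diluted 10-fold, applied for 1 h to paraformaldehyde-fixed, BSA-blocked cells in 96-well plates, with bound phage read via HRP-linked anti-M13 antibody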
Protocol: (§1) Sub-confluent cells were rinsed with PBS and fixed using 4% paraformaldehyde in PBS for 10 minutes at RT. Fixed cells were washed three times with PBS, and blocked with 2% BSA in PBS for 2 hours. Following blocking, 10-fold diluted culture supernatant containing phage was added and incubated for 1 hour. Cell-bound phage was detected via mouse anti-M13-HRP-conjugate (GE Healthcare, Cat nr. E2886). Rat mAb Hano43 was used as positive control.

[5] = molecular target: T1, mouse P2X7; test: cell-based or functional assay
[6] = molecular target: T1, mouse P2X7; test: cell-based or functional assay; remark: listed apart in the source
[7] = molecular target: T1, mouse P2X7; test: cell-based or functional assay; remark: listed apart in the source
[8] = molecular target: T1, mouse P2X7; test: phage ELISA, mP2X7-CHO vs control CHO cells
Protocol: as §1

[9] = molecular target: T4, mouse P2X7 mutant R151A (mouse, UniProt Q9Z1M0 1-595); test: flow cytometry, 1 µM Nanobody on transiently transfected Hek293 cells, normalised to Hano43 staining
T4 construct: transiently transfected Hek293 cells
T4 sequence: T1 sequence with R151A
Protocol: For flow cytometric assays, detection of Nanobodies was performed via anti-Myc and subsequent goat anti-mouse-PE conjugate, while an estimation of P2X7 expression densities was obtained via staining with rat monoclonal Hano43 followed by secondary anti-rat-PE conjugate.

[10] = molecular target: T1, mouse P2X7; test: flow cytometry, periplasmic extract pre-incubated with anti-myc-FITC, on mP2X7-Hek293 cells;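 also: periplasmic extract diluted 10-fold and premixed 45 min at 4 °C with FITC anti-myc antibody, giving pseudo-bivalent Nanobodies, before binding to the cells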
Protocol: Ten-fold diluted PE were pre-incubation with 0.5 μg anti-myc FITC-conjugated antibodies (AbD Serotec, cat no. MCA2200F) (creating pseudo-bivalent Nanobodies in order to increase binding strength) in 0.1 ml PBS/10% FCS for 45 minutes at 4° C. […] Alternatively, sequential staining of 10-fold diluted PE with anti-myc FITC-conjugated antibodies was done after incubation with the cells.

[11] = molecular target: T1, mouse P2X7; test: cell-based or functional assay; remark: listed apart in the source
[12] = molecular target: T5, Human CXCL12/SDF-1 alpha (human, UniProt P48061-2 22-89, biotinylated or 125I-labelled); test: flow cytometry (Fluorokine kit) on CXCR4-transfected HEK293 but not parental HEK293 cells
T5 construct: also called CXCL12/SDF-la; SDF-1
T5 sequence (P48061 22-89 limits assumed): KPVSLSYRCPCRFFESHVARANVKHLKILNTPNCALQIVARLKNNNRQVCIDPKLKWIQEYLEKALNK
Description: To verify the functional expression of human CXCR4, the endotoxin-free pVAX1-CXCR4 plasmid was transiently transfected into HEK293 cells using Eugene (Roche) to monitor in vitro extracellular expression via flow cytometry.

[13] = molecular target: T1, mouse P2X7; test: phage ELISA on fixed mP2X7-CHO vs untransfected CHO cells; phage ELISA, phage-displayed Nanobody, Cho P2X7 vs wt signal ratio
Protocol: as §1

B1: P2X7PMP13A7 (VHH)
VHH: EVQLVESGGGLVQPGESLRLSCTASRFMLDYYDIGWFRQAPGKEREGVSCRFTNDGSTAYADSVKGRFTISRDIVKHTVYLQMNSLQPEDTAVYYCAAGPLTKRRQCVPGDFSMDFWGEGTLVTVSS
notes: family 22; on phage or c-myc/His6-tagged in assays
B1 was tested, and the EC50 [1] was 3.4 nM, the binding result [2] was “no binding (tested: 147 nM)” and the binding result [3] was “no binding (tested: 147 nM)”. For the same binder, the “Fold Cho P2X7/wt (phage ELISA)” value [4] was 25 fold, the “IC50 (read off the curve)” value [5] was about 1 nM and the “ATP IC50 by 2 uM NB (head prints 'mM'; ligand titration at fixed Nanobody, CD62L shedding, Yac-1 cells)” value (shortened to “ATP IC50 by 2 uM NB”) [6] was 0.565 mM. For the same binder, the “IC50 (nM) against 20 uM NAD (CD62L shedding, Yac-1 cells)” value [6] was 11 nM, the “IC50 (nM) against 100 uM ATP (CD62L shedding, Yac-1 cells)” value [6] was 6 nM and the “IC50 (read off the curve)” value [7] was about 4 nM.

B2: P2X7PMP8G11 (VHH)
VHH: AVQLVESGGGLVQAGGSLRLSCAASGNFFRVNTMAWYRQAPGKQRELVADITRGDRTNYADTVNGRFTISRDNVRNTVYLQMNGLRPEDTAAYYCYAVIELGVLEPRDYWGQGTQVTVSS
notes: family 5, 1; on phage or c-myc/His6-tagged in assays; also called 8011
In the case of B2, the binding result [2] is reported as “no binding (tested: 147 nM)”, the “Fold Cho P2X7/wt (phage ELISA)” value [4] is reported as 26 fold and the “absorption ratio (ELISA)” value [8] is reported as 26 ratio. For the same binder, the “reduction of binding against WT mP2X7” value [9] was over 90%, the “IC50 (read off the curve)” value [5] was about 20 nM and the “ATP IC50 by 2 uM NB” value [6] was 0.389 mM. The “IC50 (nM) against 20 uM NAD (CD62L shedding, Yac-1 cells)” value [6] was 68 nM, the “IC50 (nM) against 100 uM ATP (CD62L shedding, Yac-1 cells)” value [6] was 37 nM and the “IC50 (read off the curve)” value [7] was about 60 nM. The “MFI FACS (pre-Myc incubation)” value [10] was 166 MFI.

B3: P2X7PMP7E2 (VHH)
VHH: EVQLVESGGGLVQAGGSLRLSCAAPERTYSMGWFRQAPGKEREFVAGSGWDGIPTRYADSVKGRFTISRDNAKNTVSLQMSGLKPEDTAIYYCATGTSVYHYQYWGQGTQVTVSS
notes: family 3; on phage or c-myc/His6-tagged in assays
B3 was tested, and the EC50 [1] was 4.3 nM, the binding result [2] was “no binding (tested: 147 nM)” and the binding result [3] was “no binding (tested: 147 nM)”. For the same binder, the “Fold Cho P2X7/wt (phage ELISA)” value [4] was 25 fold and the “reduction of binding against WT mP2X7” value [9] was over 90%.

B4: P2X7PMP14D5 (VHH)
VHH: KVQLVESGGGLVQAGGSLRLSCAASGSPISSYAMGWYRQAPGKPRELVARIYTGGTAWYEDSVKGRFTISRDNAQNTVYLQMNSLKSEDTAVYYCHGRVRYDYWGQGTQVTVSS
notes: family 17; on phage or c-myc/His6-tagged in assays
For B4, the binding result [2] was “no binding (tested: 147 nM)”, the “Fold Cho P2X7/wt (phage ELISA)” value [4] was 8 fold and the “EC50, enhancement of CD62L-ectodomain shedding at 1.5 µM NAD” value [11] was 4.1 nM. For the same binder, the “EC50, enhancement of CD62L-ectodomain shedding at 33 µM ATP” value [11] was 22.6 nM and the “ATP IC50 by 2 uM NB” value [6] was 0.016 mM.

B5: human chemokine receptor CXCR4 (receptor, UniProt P61073 1-352, looked up)
chain: MEGISIYTSDNYTEEMGSGDYDSMKEPCFREENANFNKIFLPTIYSIIFLTGIVGNGLVILVMGYQKKLRSMTDKYRLHLSVADLLFVITLPFWAVDAVANWYFGNFLCKAVHVIYTVNLYSSVLILAFISLDRYLAIVHATNSQRPRKLLAEKVVYVGVWIPALLLTIPDFIFANVSEADDRYICDRFYPNDLWVVVFQFQHIMVGLILPGIVILSCYCIIISKLSHSKGHQKRKALKTTVILILAFFACWLPYYIGISIDSFILLEIIKQGCEFENTVHKWISITEALAFFHCCLNPILYAFLGAKFKTSAQHALTSVSRGSSLKILSKGKRGGHSSVSTESESSSFHSS
notes: whole, on cells; on transfected HEK293 or camelid (CAKI) cells, or as membrane vesicles / membrane extracts of transfected HEK293 cells; also called hCXCR4
B5: binds [12].

B6: P2X7PMP7D5 (VHH)
VHH: EVQLVESGGGLVQAGDSLRLSCAASGRTFSSVAVGWFRQAPGKERDFVAWISWSGDSTYYADSVKGRFTASRDNVNNTVYLQMNSLKPEDTADYYCAAAWKYDRASYDFPEAYDYWGQGTQVTVSS
notes: family 14; on phage or c-myc/His6-tagged in assays
B6 was tested, and the EC50 [1] was 3 nM, the binding result [2] was “no binding (tested: 147 nM)” and the binding result [3] was “no binding (tested: 147 nM)”. For the same binder, the “Fold Cho P2X7/wt (phage ELISA)” value [4] was 14 fold and the “reduction of binding against WT mP2X7” value [9] was over 90%.

B7: P2X7PMP20A11 (VHH)
VHH: EVQLVESGGRVMQTGGSLRLSCAASGHTFNDYNMGWFRQAPGKELEFLAGINWSGMSTWYADSVKDRFTISRDNNKNTVFLQMNSLEPGDTAVYYCAARQWISTIILTAPSQYDYWGQGTQVTVSS
notes: family 24; on phage or c-myc/His6-tagged in assays
For B7, the binding result [2] was “no binding (tested: 147 nM)”, the binding result [3] was “no binding (tested: 147 nM)” and the “Fold Cho P2X7/wt (phage ELISA)” value [13] was 11 fold.
